According to doi:10.1101/2025.10.15.682645 (bioRxiv, 2025):
Changes are numbered by the printed parent chain.

T1: GFP-GST-Rad54 S816DS817D (Saccharomyces cerevisiae, UniProt P32863 1-898, S816D | S817D)
T1 sequence (looked up): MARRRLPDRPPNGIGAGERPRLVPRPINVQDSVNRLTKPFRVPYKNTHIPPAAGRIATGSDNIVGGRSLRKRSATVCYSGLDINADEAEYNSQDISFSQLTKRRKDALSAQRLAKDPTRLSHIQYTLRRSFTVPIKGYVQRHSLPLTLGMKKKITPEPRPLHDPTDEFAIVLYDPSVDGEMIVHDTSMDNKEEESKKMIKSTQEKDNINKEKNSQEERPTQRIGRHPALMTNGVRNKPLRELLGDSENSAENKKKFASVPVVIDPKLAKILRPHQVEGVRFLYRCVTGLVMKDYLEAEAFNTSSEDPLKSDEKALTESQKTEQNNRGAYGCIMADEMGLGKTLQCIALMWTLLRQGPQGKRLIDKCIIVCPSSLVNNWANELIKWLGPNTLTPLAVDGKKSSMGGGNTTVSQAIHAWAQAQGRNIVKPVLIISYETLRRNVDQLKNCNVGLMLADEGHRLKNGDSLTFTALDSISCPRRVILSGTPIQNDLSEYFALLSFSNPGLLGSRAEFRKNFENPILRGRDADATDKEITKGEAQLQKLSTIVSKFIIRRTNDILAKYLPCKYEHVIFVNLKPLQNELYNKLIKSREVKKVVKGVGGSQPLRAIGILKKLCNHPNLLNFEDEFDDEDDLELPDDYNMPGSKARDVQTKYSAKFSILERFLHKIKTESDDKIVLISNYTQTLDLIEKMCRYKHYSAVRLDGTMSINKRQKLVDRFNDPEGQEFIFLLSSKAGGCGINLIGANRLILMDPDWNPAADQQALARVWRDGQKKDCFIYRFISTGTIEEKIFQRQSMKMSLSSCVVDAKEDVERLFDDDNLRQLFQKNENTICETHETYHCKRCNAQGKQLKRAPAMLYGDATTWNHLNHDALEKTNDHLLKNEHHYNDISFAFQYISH

B1: GFP-GST-Rad54 (enzyme, Saccharomyces cerevisiae, UniProt P32863 1-898, looked up)
chain: T1 sequence (looked up) with D816S, D817S
B2: Rad51 (natural protein, UniProt P25454 1-400, looked up)
chain: MSQVQEQHISESQLQYGNGSLMSTVPADLSQSVVDGNGNGSSEDIEATNGSGDGGGLQEQAEAQGEMEDEAYDEAALGSFVPIEKLQVNGITMADVKKLRESGLHTAEAVAYAPRKDLLEIKGISEAKADKLLNEAARLVPMGFVTAADFHMRRSELICLTTGSKNLDTLLGGGVETGSITELFGEFRTGKSQLCHTLAVTCQIPLDIGGGEGKCLYIDTEGTFRPVRLVSIAQRFGLDPDDALNNVAYARAYNADHQLRLLDAAAQMMSESRFSLIVVDSVMALYRTDFSGRGELSARQMHLAKFMRALQRLADQFGVAVVVTNQVVAQVDGGMAFNPDPKKPIGGNIMAHSSTTRLGFKKGKGCQRLCKVVDSPCLPEAECVFAIYEDGVGDPREEDE
B3: GFP-GST-Rad54 S816AS817A (enzyme, Saccharomyces cerevisiae, UniProt P32863 1-898, looked up)
chain: T1 sequence (looked up) with D816A, D817A

What was measured:
Test in all cases: single-molecule DNA curtains
Rad51 = molecular target: B2
GFP-GST-Rad54 = molecular target: B1
GFP-GST-Rad54 S816DS817D = molecular target: T1, GFP-GST-Rad54 S816DS817D
GFP-GST-Rad54 S816AS817A = molecular target: B3

fold change of Rad54 molecules per PSC, flow off against constant flow (Rad51) | binding result (GFP-GST-Rad54) | binding result (GFP-GST-Rad54 S816DS817D) | binding result (GFP-GST-Rad54 S816AS817A) | Binder
2 fold |  |  |  | B1
 | binds | binds | binds | B2
2 fold |  |  |  | B3
